Data set [1] has as its target T1, NBD (nonamer binding domain of RAG1) (mouse, UniProt P15919 384-461).
T1 sequence: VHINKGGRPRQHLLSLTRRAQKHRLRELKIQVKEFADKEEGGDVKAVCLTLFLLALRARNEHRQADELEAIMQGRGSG
Put plainly: EMSA; 5 mM Ca2+; NBD EMSA: 10 mM Tris-HCl pH 7.5, 33 mM KCl, 5 mM CaCl2, 2 mM DTT, 0.1 mg/ml BSA, 6% glycerol, 15 min 30 C; cRAG EMSA: 22.5 mM MOPS-KOH pH 7.0, 20% DMSO, 2.2 mM. The conditions noted are these: protein: recombinant, tags: N-terminal His6 (pET28a).

The target of data set [2] is T2, MBP-cRAG1 (core RAG1);cRAG2 (core RAG2) (mouse?;mouse?, UniProt P15919;P21784 384-1040;1-383, |).
T2 sequence 1: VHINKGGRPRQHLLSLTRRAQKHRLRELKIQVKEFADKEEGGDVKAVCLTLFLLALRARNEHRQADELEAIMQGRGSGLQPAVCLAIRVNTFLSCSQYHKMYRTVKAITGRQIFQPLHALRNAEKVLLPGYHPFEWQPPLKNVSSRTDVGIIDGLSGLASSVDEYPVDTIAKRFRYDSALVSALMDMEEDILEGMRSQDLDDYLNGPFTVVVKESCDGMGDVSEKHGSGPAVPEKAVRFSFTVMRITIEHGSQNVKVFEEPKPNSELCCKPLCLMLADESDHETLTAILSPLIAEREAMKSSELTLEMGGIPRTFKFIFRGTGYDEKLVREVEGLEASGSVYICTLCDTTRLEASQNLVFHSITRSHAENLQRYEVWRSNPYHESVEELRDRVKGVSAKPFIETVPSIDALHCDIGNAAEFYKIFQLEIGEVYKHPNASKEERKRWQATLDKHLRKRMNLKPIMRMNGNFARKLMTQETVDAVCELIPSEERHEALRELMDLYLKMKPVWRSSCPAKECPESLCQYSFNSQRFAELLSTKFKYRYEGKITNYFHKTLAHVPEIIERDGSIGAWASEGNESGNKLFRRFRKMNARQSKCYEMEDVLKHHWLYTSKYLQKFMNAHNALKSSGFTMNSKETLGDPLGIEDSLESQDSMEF
T2 sequence 2: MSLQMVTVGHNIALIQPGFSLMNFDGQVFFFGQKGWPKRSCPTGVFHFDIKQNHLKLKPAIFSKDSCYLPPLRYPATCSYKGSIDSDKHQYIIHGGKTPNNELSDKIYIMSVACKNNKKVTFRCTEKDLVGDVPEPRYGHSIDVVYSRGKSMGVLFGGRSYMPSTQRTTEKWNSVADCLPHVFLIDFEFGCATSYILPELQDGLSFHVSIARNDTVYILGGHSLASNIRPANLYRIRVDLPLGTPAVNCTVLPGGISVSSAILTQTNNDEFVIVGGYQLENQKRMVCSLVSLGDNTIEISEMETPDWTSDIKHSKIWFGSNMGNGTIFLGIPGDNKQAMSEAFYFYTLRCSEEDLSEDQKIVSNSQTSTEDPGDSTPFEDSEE
Put plainly: EMSA; cRAG buffer; NBD EMSA: 10 mM Tris-HCl pH 7.5, 33 mM KCl, 5 mM CaCl2, 2 mM DTT, 0.1 mg/ml BSA, 6% glycerol, 15 min 30 C; cRAG EMSA: 22.5 mM MOPS-KOH pH 7.0, 20% DMSO, 2.2 mM. The conditions noted are these: protein: recombinant;recombinant, tags: MBP;MBP, chain copies: 2;2.

Data set [3] deals with T1, NBD (nonamer binding domain of RAG1). Description: BLI; 1x PBS, 30 C, 1:1 fit; NBD EMSA: 10 mM Tris-HCl pH 7.5, 33 mM KCl, 5 mM CaCl2, 2 mM DTT, 0.1 mg/ml BSA, 6% glycerol, 15 min 30 C; cRAG EMSA: 22.5 mM MOPS-KOH pH 7.0, 20% DMSO, 2.2 mM. The conditions noted are these: protein: recombinant; tags: N-terminal His6 (pET28a); label: 5' biotin. Background: In BLI a coated tip is dipped into the sample, and binding shifts an interference pattern.

The mark [4] stands for this setting: label: 5' 32P, 6 nt T/T bubble, blunt ends.
Where [5] appears, read: label: 5' 32P, 6 nt A/A bubble, blunt ends.
Where [6] appears, read: label: 5' 32P, 6 nt G/G bubble, blunt ends, intermolecular G4 in K+ buffer.
[7] abbreviates: label: 5' 32P on NM32, 6 nt T/T bubble, blunt ends.
[8] abbreviates: label: 5' 32P on AKN1, 5' overhang 1 nt at both ends.
[9] abbreviates: label: 5' 32P, 6 nt C/C bubble, blunt ends.

The results in this text go back to PMC4705477, “Biochemical Characterization of Nonamer Binding Domain of RAG1 Reveals its Thymine Preference with Respect to Length and Position”.

B1: T/T bubble heteroduplex (AKN11/SCR252) (dsDNA)
DNA 1: GACCTGAGGGCGAGCTTTTTTCGAGTAACTTAACAG
DNA 2: CTGTTAAGTTACTCGTTTTTTGCTCGCCCTCAGGTC
For the molecule B1, the binding result in data set [1] (setting [4]) is reported as “no binding”; in data set [2] (setting [4]), “binds”.

B2: A/T 16 bp (MS102/DR39) (dsDNA)
DNA 1: TTTTTTTTTTTTTTTT
DNA 2: AAAAAAAAAAAAAAAA
Take B2: the binding result in data set [1] (label: 5' 32P, blunt) was “no binding”.

B3: random dsDNA MN37/MN38 (XV or XVI) (dsDNA)
DNA 1: CCTCTCCCCCTCCCCTCCCCTCCCTCGCGC
DNA 2: GCGCGAGGGAGGGGAGGGGAGGGGGAGAGG
With B3, in data set [1] (label: 5' 32P on MN37, blunt), the binding result is given as “no binding”.

B4: A/T 10 bp (MS103/DR38) (dsDNA)
DNA 1: TTTTTTTTTT
DNA 2: AAAAAAAAAA
With B4, the binding result in data set [1] (label: 5' 32P, blunt) is reported as “no binding”.

B5: random dsDNA MN45/MN46 (XV or XVI) (dsDNA)
DNA 1: AGAAGGGGGAGGGGAGGGAGAGAGGGGGCGCCG
DNA 2: CGGCGCCCCCTCTCTCCCTCCCCTCCCCCTTCT
Take B5: the binding result in data set [1] (label: 5' 32P on MN45, blunt) is listed as “no binding”.

Take TTTTTTTTTTTTTTTTTTTTTTTTTTTT (ssDNA) [poly T 28 (MS101)]: in data set [1] (label: 5' 32P), the binding result is recorded as “binds”.

B6: A/T 28 bp (MS101/DR41) (dsDNA)
DNA 1: TTTTTTTTTTTTTTTTTTTTTTTTTTTT
DNA 2: AAAAAAAAAAAAAAAAAAAAAAAAAAAA
On to B6, for which the binding result in data set [1] (label: 5' 32P, blunt) was “binds”.

As for TTTTTTTTTTTTTTTTTTTTTT (ssDNA) [poly T 22 (MS100)], in data set [1] (label: 5' 32P), the binding result is “no binding”.

With CTGTTAAGTTACTCGAAAAAAGCTCGCCCTCAGGTC (ssDNA) [XXXIII, ssDNA lacking T stretch], the binding result in data set [1] (label: 5' 32P) is given as “no binding”.

B7: A/A bubble heteroduplex (AKN18/AKN45) (dsDNA)
DNA 1: CTGTTAAGTTACTCGAAAAAAGCTCGCCCTCAGGTC
DNA 2: GACCTGAGGGCGAGCAAAAAACGAGTAACTTAACAG
Consider B7, for which the binding result in data set [1] (setting [5]) and in data set [2] (setting [5]) was “no binding” each time.

In the case of TTTTTTTTTTGAGTCGGATCTTACGTCGTAACTTCGCTAC (ssDNA) [XXXI, 10 T at 5' end (MS22)], in data set [1] (label: 5' 32P), the binding result is given as “binds”.

B8: G/G bubble heteroduplex (V, AKN47/AKN48) (dsDNA)
DNA 1: GACCTGAGGGCGAGCGGGGGGCGAGTAACTTAACAG
DNA 2: CTGTTAAGTTACTCGGGGGGGGCTCGCCCTCAGGTC
Take B8: the binding result in data set [1] (setting [6]) and in data set [2] (setting [6]) was “no binding” in each case.

With TTTTTTTTTT (ssDNA) [poly T 10 (MS103)], in data set [1] (label: 5' 32P), the binding result was “no binding”.

B9: T/T bubble with nonamer (VII, NM32/NM33) (dsDNA)
DNA 1: GACCTGAGGGCGAGCTTTTTTCGAGTAACTTAAACAAAAACCCTGCT
DNA 2: AGCAGGGTTTTTGTTTAAGTTACTCGTTTTTTGCTCGCCCTCAGGTC
On to B9, for which the binding result in data set [1] (setting [7]) and in data set [2] (setting [7]) was “binds” throughout.

Usually Kd stands for the concentration at which binding is half-saturated. Regarding TTTTTTTTTTTTTTTTTTTTTTTTTTTTTTTTTTT (ssDNA) [biotinylated poly T 35], in data set [3], the Kd was 450 nM.

TTTTTTTTTTTTTTTTTTTTTTTTTTTTTTTTTTT (ssDNA) [ss poly T 35 (MS3)]: the binding result in data set [2] (label: 5' 32P) is on record as “no binding”.

B10: poly T 75 (MS6) (ssDNA)
DNA: TTTTTTTTTTTTTTTTTTTTTTTTTTTTTTTTTTTTTTTTTTTTTTTTTTTTTTTTTTTTTTTTTTTTTTTTTT
In the case of B10, the binding result in data set [1] (label: 5' 32P) is “binds”.

Regarding TTTTTTTTTTTTTTTT (ssDNA) [poly T 16 (MS102)], the binding result in data set [1] (label: 5' 32P) is on record as “no binding”.

In the case of GAGTCTGATCTTACCTCTTATTTTTTTTTTTTTTT (ssDNA) [XXIX, 15 T at 3' end (MS16)], the binding result in data set [1] (label: 5' 32P) is reported as “binds”.

On to GAGTCTGATCTTACCTTTTTTTTTTTTTTTTTTTT (ssDNA) [XXX, 20 T at 3' end (MS18)], for which, in data set [1] (label: 5' 32P), the binding result was “binds”.

B11: 12RSS (I, AKN1/AKN2) (dsDNA)
DNA 1: GATCAGCTGATAGCTACCACAGTGCTACAGACTGGAACAAAAACCCTGCT
DNA 2: TAGCAGGGTTTTTGTTCCAGTCTGTAGCACTGTGGTAGCTATCAGCTGAT
For B11, the binding result in data set [1] (setting [8]) and in data set [2] (setting [8]) was “binds” throughout.

B12: C/C bubble heteroduplex (AKN46/AKN20) (dsDNA)
DNA 1: GACCTGAGGGCGAGCCCCCCCCGAGTAACTTAACAG
DNA 2: CTGTTAAGTTACTCGCCCCCCGCTCGCCCTCAGGTC
With B12, the values for the binding result in data set [1] (setting [9]) and in data set [2] (setting [9]) were “no binding” and “binds”, respectively.

GAGTCTGATCTTACCTCTTAACTTCGCTACTTTTT (ssDNA) [XXVII, 5 T at 3' end (MS12)]: in data set [1] (label: 5' 32P), the binding result is reported as “binds”.

In the case of GAGTCTGATCTTACCTCTTAACTTCTTTTTTTTTT (ssDNA) [XXVIII, 10 T at 3' end (MS14)], the binding result in data set [1] (label: 5' 32P) was “binds”.

B13: A/T 22 bp (MS100/DR40) (dsDNA)
DNA 1: TTTTTTTTTTTTTTTTTTTTTT
DNA 2: AAAAAAAAAAAAAAAAAAAAAA
B13: the binding result in data set [1] (label: 5' 32P, blunt) was “no binding”.
